First the molecules themselves.
B1: TRIP6: human host interactor protein, Gene ID 7205, expressed from transfected ORF vector (protein)
chain: MSGPTWLPPKQPEPARAPQGRAIPRGTPGPPPAHGAALQPHPRVNFCPLPSEQCYQAPGGPEDRGPAWVGSHGVLQHTQGLPADRGGLRPGSLDAEIDLLSSTLAELNGGRGHASRRPDRQAYEPPPPPAYRTGSLKPNPASPLPASPYGGPTPASYTTASTPAGPAFPVQVKVAQPVRGCGPPRRGASQASGPLPGPHFPLPGRGEVWGPGYRSQREPGPGAKEEAAGVSGPAGRGRGGEHGPQVPLSQPPEDELDRLTKKLVHDMNHPPSGEYFGQCGGCGEDVVGDGAGVVALDRVFHVGCFVCSTCRAQLRGQHFYAVERRAYCEGCYVATLEKCATCSQPILDRILRAMGKAYHPGCFTCVVCHRGLDGIPFTVDATSQIHCIEDFHRKFAPRCSVCGGAIMPEPGQEETVRIVALDRSFHIGCYKCEECGLLLSSEGECQGCYPLDGHILCKACSAWRIQELSATVTTDC
B2: GCC1: human host interactor protein, Gene ID 79571, expressed from transfected ORF vector (protein)
chain: MEKFGMNFGGGPSKKDLLETIETQKKQLLQYQARLKDVVRAYKSLLKEKEALEASIKVLSVSHEADVGLAGVQLPGLTFPDSVDDRCSTHSEDSTGTATSLDTAASLTSTKGEFGVEDDRPARGPPPPKSEEASWSESGVSSSSGDGPFAGGEVDKRLHQLKTQLATLTSSLATVTQEKSRMEASYLADKKKMKQDLEDASNKAEEERARLEGELKGLQEQIAETKARLITQQHDRAQEQSDHALMLRELQKLLQEERTQRQDLELRLEETREALAGRAYAAEQMEGFELQTKQLTREVEELKSELQAIRDEKNQPDPRLQELQEEAARLKSHFQAQLQQEMRKTALAEDQLRQQSQVEEQRVAALENQISEVSELLGTYEKAKQKDQLAIQKLKERILQLDLENKTLALAASSRSPLDSHGEESSLDVNVLKDKMEKLKRLLQVAARKSQVTLDVEKLCDLEIMPSSEAADGEKATALYYQQELKQLKEEFERYKMRAQVVLKSKNTKDGNLGKELEAAQEQLAELKEKYISLRLSCEELEHQHQQEADDWKQELARLQQLHRQELERCQLDFRDRTLKLEEELHKQRDRALAVLTEKDLELEQLRSVALASGLPGRRSPVGGGGPGDPADTSSSDSLTQALQLAAANEPTFFLYAEQLARKEVEITSLRKQKHRLEVEVHQLQDRLLEEGERHREEVAALQSHIEKNIRDQSREGANLEYLKNIIYRFLTLPDSLGRQQTLTAILTILHFSPEEKQVIMRLPTSASWWPSGKR
B3: TRAF2: human host interactor protein, Gene ID 7186, expressed from transfected ORF vector (protein)
chain: MAAASVTPPGSLELLQPGFSKTLLGTKLEAKYLCSACRNVLRRPFQAQCGHRYCSFCLASILSSGPQNCAACVHEGIYEEGISILESSSAFPDNAARREVESLPAVCPSDGCTWKGTLKEYESCHEGRCPLMLTECPACKGLVRLGEKERHLEHECPERSLSCRHCRAPCCGADVKAHHEVCPKFPLTCDGCGKKKIPREKFQDHVKTCGKCRVPCRFHAIGCLETVEGEKQQEHEVQWLREHLAMLLSSVLEAKPLLGDQSHAGSELLQRCESLEKKTATFENIVCVLNREVERVAMTAEACSRQHRLDQDKIEALSSKVQQLERSIGLKDLAMADLEQKVLEMEASTYDGVFIWKISDFARKRQEAVAGRIPAIFSPAFYTSRYGYKMCLRIYLNGDGTGRGTHLSLFFVVMKGPNDALLRWPFNQKVTLMLLDQNNREHVIDAFRPDVTSSSFQRPVNDMNIASGCPLFCPVSKMEAKNSYVRDDAIFIKAIVDLTGL
B4: C16orf33: human host interactor protein, Gene ID 79622, expressed from transfected ORF vector (protein)
chain: MDVFQEGLAMVVQDPLLCDLPIQVTLEEVNSQIALEYGQAMTVRVCKMDGEVMPVVVVQSATVLDLKKAIQRYVQLKQEREGGIQHISWSYVWRTYHLTSAGEKLTEDRKKLRDYGIRNRDEVSFIKKLRQK
B5: KRT8: human host interactor protein, Gene ID 3856, expressed from transfected ORF vector (protein)
chain: MSIRVTQKSYKVSTSGPRAFSSRSYTSGPGSRISSSSFSRVGSSNFRGGLGGGYGGASGMGGITAVTVNQSLLSPLVLEVDPNIQAVRTQEKEQIKTLNNKFASFIDKVRFLEQQNKMLETKWSLLQQQKTARSNMDNMFESYINNLRRQLETLGQEKLKLEAELGNMQGLVEDFKNKYEDEINKRTEMENEFVLIKKDVDEAYMNKVELESRLEGLTDEINFLRQLYEEEIRELQSQISDTSVVLSMDNSRSLDMDSIIAEVKAQYEDIANRSRAEAESMYQIKYEELQSLAGKHGDDLRRTKTEISEMNRNISRLQAEIEGLKGQRASLEAAIADAEQRGELAIKDANAKLSELEAALQRAKQDMARQLREYQELMNVKLALDIEIATYRKLLEGEESRLESGMQNMSIHTKTTSGYAGGLSSAYGGLTSPGLSYSLGSSFGSGAGSSSFSRTSSSRAVVVKKIETRDGKLVSESSDVLPK
B6: FANCG: human host interactor protein, Gene ID 2189, expressed from transfected ORF vector (protein)
chain: MSRQTTSVGSSCLDLWREKNDRLVRQAKVAQNSGLTLRRQQLAQDALEGLRGLLHSLQGLPAAVPVLPLELTVTCNFIILRASLAQGFTEDQAQDIQRSLERVLETQEQQGPRLEQGLRELWDSVLRASCLLPELLSALHRLVGLQAALWLSADRLGDLALLLETLNGSQSGASKDLLLLLKTWSPPAEELDAPLTLQDAQGLKDVLLTAFAYRQGLQELITGNPDKALSSLHEAASGLCPRPVLVQVYTALGSCHRKMGNPQRALLYLVAALKEGSAWGPPLLEASRLYQQLGDTTAELESLELLVEALNVPCSSKAPQFLIEVELLLPPPDLASPLHCGTQSQTKHILASRCLQTGRAGDAAEHYLDLLALLLDSSEPRFSPPPSPPGPCMPEVFLEAAVALIQAGRAQDALTLCEELLSRTSSLLPKMSRLWEDARKGTKELPYCPLWVSATHLLQGQAWVQLGAQKVAISEFSRCLELLFRATPEEKEQGAAFNCEQGCKSDAALQQLRAAALISRGLEWVASGQDTKALQDFLLSVQMCPGNRDTYFHLLQTLKRLDRRDEATALWWRLEAQTKGSHEDALWSLPLYLESYLSWIRPSDRDAFLEEFRTSLPKSCDL
B7: C20orf141: human host interactor protein, Gene ID 128653, expressed from transfected ORF vector (protein)
chain: MTRLCLPRPEAREDPIPVPPRGLGAGEGSGSPVRPPVSTWGPSWAQLLDSVLWLGALGLTIQAVFSTTGPALLLLLVSFLTFDLLHRPAGHTLPQRKLLTRGQSQGAGEGPGQQEALLLQMGTVSGQLSLQDALLLLLMGLGPLLRACGMPLTLLGLAFCLHPWA
B8: DLX2: human host interactor protein, Gene ID 1746, expressed from transfected ORF vector (protein)
chain: MTGVFDSLVADMHSTQIAASSTYHQHQQPPSGGGAGPGGNSSSSSSLHKPQESPTLPVSTATDSSYYTNQQHPAGGGGGGGSPYAHMGSYQYQASGLNNVPYSAKSSYDLGYTAAYTSYAPYGTSSSPANNEPEKEDLEPEIRIVNGKPKKVRKPRTIYSSFQLAALQRRFQKTQYLALPERAELAASLGLTQTQVKIWFQNRRSKFKKMWKSGEIPSEQHPGASASPPCASPPVSAPASWDFGVPQRMAGGGGPGSGGSGAGSSGSSPSSAASAFLGNYPWYHQTSGSASHLQATAPLLHPTQTPQPHHHHHHHGGGGAPVSAGTIF

Our source for the HIV_LTR transactiv. and HTLV_LTR transactiv. values is patent publication US20120090043A1, “TARGETS FOR RETROVIRUS ASSOCIATED DISEASES” (priority 2009, published 2012).

In the first test the test system is HIV-1 LTR promoter transactivation by HIV-1 Tat. The test is described as follows: Transactivation assay, HIV-1 LTR luciferase reporter with HIV-1 Tat. It counts as cell-based. The following applies: HEK293 cells co-transfected with pHIV1LTR-Luc, HIV-1 Tat and the human ORF; relative luciferase activity 24 h post-transfection; positive if >=2 or <=0.5 and p<0.05. The text has this:
The plasmids pHIV1LTR-Luc or pHTLV1LTR-Luc containing a luciferase reporter gene under the control of the HIV-1 or HTLV-1 LTR promoters and plasmids expressing either HIV-1 Tat or HTLV-1 Tax and each human ORF found to interact with viral proteins were transfected into 10^4 HEK293 cells using the calcium phosphate method. Twenty-four hours post-transfection, cells were washed three times with PBS, lysed and luciferase activities determined from two independent transfection experiments in triplicate. We computed a paired t-test to assess the difference of the means between samples with and without the human interactor. For a trial to be considered positive, the relative luciferase activities has to be >=2 or <=0.5, and the p-value of the t-test<0.05.
Many HIV/HTLV-human interactions in our data set (130/212) involved the retroviral transactivator proteins HTLV-1 Tax (57/212), HTLV-2 Tax2 (49/212), HIV-1 Tat (10/212) and HIV-2 Tat (14/212). Human proteins interacting with viral transactivators likely influence Tat or Tax transactivation. Expression vectors encoding human ORFs and HIV-1 Tat or HTLV-1 Tax proteins were tested in a transactivation reporter assay against reporter plasmids harboring HIV-1 or HTLV-1 viral promoter sequences cloned upstream of the luciferase reporter gene. In the controls Tat or Tax respectively activated HIV or HTLV LTR-directed gene expression. Co-transfection of interacting human ORFs identified 71 proteins (54% of the 131 human targets in our data set) that regulated HIV (26.7% of targets), HTLV (37.4% of targets) or both (9.9% of targets) LTR promoter activation by Tat or Tax (see Tables 7 and 8; Table 13 below containing quantitative data on the regulation of transactivation). Wherever not expressly specified, constructs used herein were generally made by sub-cloning entry clones from the ORFeome V3.1 into suitable destination vectors.
In general terms: A reporter such as luciferase makes a cellular process visible.
As to B1, the HIV_LTR transactiv. came out at 2.87 fold change. Regarding B2, the HIV_LTR transactiv. is recorded as 3.78 fold change.

Regarding B3, the HIV_LTR transactiv. was 0.22 fold change.

Molecule B4 came in with an HIV_LTR transactiv. of 2.50 fold change. For the molecule B5, the HIV_LTR transactiv. worked out at 0.19 fold change. Still for that read-out and setting: in the case of B6 it was 0.27 fold change; in that of B7, 0.35 fold change. On the same count and under the same terms, the figure for B8 is 0.24 fold change.

The subject of another test is HTLV-1 LTR promoter transactivation by HTLV-1 Tax. The test is described as follows: Transactivation assay, HTLV-1 LTR luciferase reporter with HTLV-1 Tax. Format: cell-based. The following applies: HEK293 cells co-transfected with pHTLV1LTR-Luc, HTLV-1 Tax and the human ORF; relative luciferase activity 24 h post-transfection; positive if >=2 or <=0.5 and p<0.05.
On to B2, for which the HTLV_LTR transactiv. is reported as 0.29 fold change. For B5, the HTLV_LTR transactiv. was found to be 0.24 fold change. The same measure, in the same setting: in the case of B6 it was 3.48 fold change; in that of B7, 2.80 fold change; in that of B8, 0.30 fold change.
